# Reference: patent publication US20220251204A1 (AstraZeneca / MedImmune, published 2022)
# T1: human OX40 expressed on cells (human, UniProt P43489 29-277)
# T1 sequence: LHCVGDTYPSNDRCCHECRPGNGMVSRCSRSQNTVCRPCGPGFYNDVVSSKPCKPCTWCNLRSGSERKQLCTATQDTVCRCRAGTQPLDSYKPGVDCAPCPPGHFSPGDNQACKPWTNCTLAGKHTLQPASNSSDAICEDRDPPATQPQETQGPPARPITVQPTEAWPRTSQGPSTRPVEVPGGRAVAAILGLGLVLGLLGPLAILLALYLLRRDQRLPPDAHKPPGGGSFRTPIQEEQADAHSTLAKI
# T2: mouse PD-1 (mouse, UniProt Q02242 25-167)
# T2 construct: also called mu PD1
# T2 sequence (looked up): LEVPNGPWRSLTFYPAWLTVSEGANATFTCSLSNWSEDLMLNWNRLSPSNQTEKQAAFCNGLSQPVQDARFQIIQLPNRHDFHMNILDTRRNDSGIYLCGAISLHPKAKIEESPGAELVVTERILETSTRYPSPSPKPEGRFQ
# T3: human TIM3 expressed on CHO cells (human, UniProt Q8TDQ0 22-301)
# T3 construct: also called CHO cells overexpressing human TIM3
# T3 sequence: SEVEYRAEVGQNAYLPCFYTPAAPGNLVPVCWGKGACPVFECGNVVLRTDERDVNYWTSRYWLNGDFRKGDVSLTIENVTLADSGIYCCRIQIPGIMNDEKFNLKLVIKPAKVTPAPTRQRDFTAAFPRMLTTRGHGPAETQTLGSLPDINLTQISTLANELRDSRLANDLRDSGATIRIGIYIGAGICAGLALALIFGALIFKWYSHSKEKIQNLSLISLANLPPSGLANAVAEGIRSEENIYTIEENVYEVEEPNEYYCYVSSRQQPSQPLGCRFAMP
# T4: cynomolgus TIM3 (cynomolgus, UniProt A0A2K5U3G7 22-195)
# T4 construct: also called Cyno TIM3
# T4 sequence: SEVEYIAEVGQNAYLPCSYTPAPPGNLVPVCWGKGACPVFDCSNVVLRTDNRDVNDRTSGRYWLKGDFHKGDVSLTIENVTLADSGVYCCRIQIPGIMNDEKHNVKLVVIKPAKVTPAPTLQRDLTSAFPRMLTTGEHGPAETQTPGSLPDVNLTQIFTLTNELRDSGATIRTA
# T5: human TIM3 (soluble) (human, UniProt Q8TDQ0 22-202)
# T5 construct: also called Biotinylated human TIM3
# T5 sequence: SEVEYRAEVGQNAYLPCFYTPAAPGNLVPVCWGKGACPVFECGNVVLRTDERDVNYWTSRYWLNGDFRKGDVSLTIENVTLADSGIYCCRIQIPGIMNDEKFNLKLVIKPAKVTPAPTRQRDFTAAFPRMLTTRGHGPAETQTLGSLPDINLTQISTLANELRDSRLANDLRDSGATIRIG
# B1: PD-1(LO115)/OX40 BiS2 mAb (bispecific antibody, human IgG4 S228P, kappa)
# heavy: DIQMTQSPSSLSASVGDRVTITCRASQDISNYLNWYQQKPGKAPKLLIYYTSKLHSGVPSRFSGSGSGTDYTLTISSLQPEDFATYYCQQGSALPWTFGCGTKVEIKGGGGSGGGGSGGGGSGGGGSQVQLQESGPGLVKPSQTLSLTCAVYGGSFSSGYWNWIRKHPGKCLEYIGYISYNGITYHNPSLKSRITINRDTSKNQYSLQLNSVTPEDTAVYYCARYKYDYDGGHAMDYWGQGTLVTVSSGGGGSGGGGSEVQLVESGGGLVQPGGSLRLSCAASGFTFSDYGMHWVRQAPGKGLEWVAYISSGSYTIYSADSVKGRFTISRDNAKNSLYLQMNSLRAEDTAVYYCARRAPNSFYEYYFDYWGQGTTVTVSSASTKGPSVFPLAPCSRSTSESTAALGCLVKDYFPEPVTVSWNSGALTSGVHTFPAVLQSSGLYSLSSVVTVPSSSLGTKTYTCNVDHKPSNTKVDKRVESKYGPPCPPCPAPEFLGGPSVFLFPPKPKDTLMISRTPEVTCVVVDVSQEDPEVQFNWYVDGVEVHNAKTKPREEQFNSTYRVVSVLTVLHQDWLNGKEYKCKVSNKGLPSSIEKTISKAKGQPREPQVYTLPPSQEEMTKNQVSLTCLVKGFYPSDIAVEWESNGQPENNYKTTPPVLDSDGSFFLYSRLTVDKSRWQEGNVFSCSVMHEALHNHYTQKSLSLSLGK
# light: QIVLTQSPATLSLSPGERATLSCSASSKHTNLYWSRHMYWYQQKPGQAPRLLIYLTSNRATGIPARFSGSGSGTDFTLTISSLEPEDFAVYYCQQWSSNPFTFGQGTKLEIKRTVAAPSVFIFPPSDEQLKSGTASVVCLLNNFYPREAKVQWKVDNALQSGNSQESVTEQDSKDSTYSLSSTLTLSKADYEKHKVYACEVTHQGLSSPVTKSFNRGEC
# B2: Anti-PD-1 (LO115) IgG (antibody, V domains shown)
# VH: EVQLVESGGGLVQPGGSLRLSCAASGFTFSDYGMHWVRQAPGKGLEWVAYISSGSYTIYSADSVKGRFTISRDNAKNSLYLQMNSLRAEDTAVYYCARRAPNSFYEYYFDYWGQGTTVTVSS
# VL: QIVLTQSPATLSLSPGERATLSCSASSKHTNLYWSRHMYWYQQKPGQAPRLLIYLTSNRATGIPARFSGSGSGTDFTLTISSLEPEDFAVYYCQQWSSNPFTFGQGTKLEIK
# notes: also called anti-PD-1 parental monoclonal antibody
# B3: O13-1 IgG1-TM (antibody, V domains shown)
# VH: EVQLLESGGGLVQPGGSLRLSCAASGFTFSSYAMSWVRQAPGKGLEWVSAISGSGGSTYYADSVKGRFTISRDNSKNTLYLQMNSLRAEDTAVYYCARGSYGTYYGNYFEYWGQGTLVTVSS
# VL: SYVLTQPPSVSVAPGKTARITCGGDNIGGKSVHWYQQKPGQAPVLVIYYDSDRPSGIPERFSGSNSGNTATLTISRVEAGDEADYYCQVLDRRSDHFLFGGGTKLTVLG
# notes: also called anti-TIM3 LOO131
# Experiments:
# [1] = target: T6, human PD-1 expressed on cells (human, UniProt Q15116 25-288); assay: cell-based or functional assay
# [2] = target: T1, human OX40 expressed on cells; assay: cell-based or functional assay
# [3] = target: T6, human PD-1 expressed on cells; assay: flow cytometry receptor occupancy, CHO cells expressing PD-1:CTLA-4 (10:1); free PD-1 detected with labeled anti-PD-1 mAb
# [4] = target: T6, human PD-1 expressed on cells; assay: flow cytometry receptor occupancy, CHO cells expressing PD-1:CTLA-4 (40:1), combination of the anti-PD-1 and anti-CTLA-4 mAbs; free PD-1 detected with labeled anti-PD-1 mAb; the light-triangle curve crosses 50 % at about 6 to 7 nM
# [5] = target: T6, human PD-1 expressed on cells; assay: flow cytometry, IgG binding to cultured T cells stimulated with anti-CD3+anti-CD28, CD4+ gate
# [6] = target: T6, human PD-1 expressed on cells; assay: flow cytometry, CHO cells expressing PD-1:CTLA-4 (10:1)
# [7] = target: T6, human PD-1 expressed on cells; assay: flow cytometry receptor occupancy, CHO cells expressing PD-1:CTLA-4 (40:1); free PD-1 detected with labeled anti-PD-1 mAb
# mouse PD-1 = target: T2, mouse PD-1; assay: SPR, BIAcore T200; antibody captured on mouse anti-huIgG-Fab, antigen injected
# Description: (§1) Binding experiments were carried out using a BIAcore T200 instrument (BIAcore). To capture the antibody, mouse anti-huIgG-Fab was immobilized on a CM5 chip to a target response of 2000 RU. 100 nM of the DuetMab or mAbs were flowed at 20 μL/min for 5 min to achieve approximately 100 response units of captured antibody. Antigen were then injected serially at a flow rate of 50 μl/min for 5 min. Kinetic parameters (kₒₙ and koff) and dissociation constant (KD) were calculated from a non-linear fit using BIAevaluation 4.1 software.
# cynomolgus PD-1 = target: T7, cynomolgus PD-1 (cynomolgus, UniProt B0LAJ3 25-170); assay: as above
# T7 construct: also called cyno PD1
# Description: as §1
# [8] = target: T8, human PD-1 antigen (soluble) (human, UniProt Q15116 25-170); assay: as above
# T8 construct: also called hu PD1; Biotinylated human PD-1
# Description: as §1
# [9] = target: T3, human TIM3 expressed on CHO cells; assay: flow cytometry, Human TIM3 CHO cells, x axis hIgG1TM (nM)
# cynomolgus TIM3 = target: T4, cynomolgus TIM3; assay: SPR, BIAcore T200; antibody captured on mouse anti-huIgG-Fab, antigen injected
# Description: as §1
# human TIM3 (soluble) = target: T5, human TIM3 (soluble); assay: as above
# Description: as §1
# [10] = target: T6, human PD-1 expressed on cells; assay: flow cytometry, HumanPD1 CHO cells, x axis hIgG1TM mAb (nM)
# T8 sequence (Q15116 25-170 limits assumed): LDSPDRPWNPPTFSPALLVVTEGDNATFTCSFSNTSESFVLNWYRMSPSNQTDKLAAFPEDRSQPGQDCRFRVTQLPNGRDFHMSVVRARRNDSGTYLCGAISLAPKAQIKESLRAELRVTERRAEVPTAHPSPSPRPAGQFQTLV
# T6 sequence (Q15116 25-288 limits assumed): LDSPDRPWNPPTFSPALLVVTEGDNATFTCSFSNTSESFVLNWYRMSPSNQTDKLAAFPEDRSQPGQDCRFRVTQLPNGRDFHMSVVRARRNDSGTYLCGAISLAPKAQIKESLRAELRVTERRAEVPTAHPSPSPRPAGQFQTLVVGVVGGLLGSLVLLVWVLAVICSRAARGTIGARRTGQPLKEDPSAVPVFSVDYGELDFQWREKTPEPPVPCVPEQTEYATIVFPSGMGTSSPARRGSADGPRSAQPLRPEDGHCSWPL
# T7 sequence (B0LAJ3 entry or part of it limits assumed): as the sequence (Q15116 25-170 limits assumed) above, with D2E, P10A, V19L, T35A, Q75R, T144A counted along it
binder,measurement,setting,value
B1,"PD-1/PD-L1 reporter assay, EC50 (relative light units)",[1],~1 nM
same,"OX40 reporter assay, EC50 (relative light units)",[2],~2 nM
B2,IC50,[3],3.9 nM
same,IC50,[4],6.4 nM
same,EC50 (read off the curve),[5],~1 nM
same,EC50 (read off the curve),[6],~2 nM
same,IC50,[7],5.5 nM
same,Kd,mouse PD-1,447 nM
same,koff,mouse PD-1,0.0665 s⁻¹
same,kon,mouse PD-1,149000 M⁻¹ s⁻¹
same,Kd,cynomolgus PD-1,0.69 nM
same,koff,cynomolgus PD-1,0.000238 s⁻¹
same,kon,cynomolgus PD-1,346000 M⁻¹ s⁻¹
same,Kd,[8],0.79 nM
same,koff,[8],0.000237 s⁻¹
same,kon,[8],302000 M⁻¹ s⁻¹
B3,EC50 (read off the curve),[9],~0.03 nM
same,Kd,cynomolgus TIM3,25.7 nM
same,koff,cynomolgus TIM3,0.0718 s⁻¹
same,kon,cynomolgus TIM3,2.79e+06 M⁻¹ s⁻¹
same,Kd,human TIM3 (soluble),4.01 nM
same,koff,human TIM3 (soluble),0.00752 s⁻¹
same,kon,human TIM3 (soluble),1.88e+06 M⁻¹ s⁻¹
same,binding result,[10],no binding (tested: about 100 nM)
